Target: His-tagged human Her2/Neu protein (Her2-His) (human) (UniProt P04626)
Assay: Octet (BLI), Her2-His on penta-His biosensor, antibody in solution

- Kd: < 1 pM
- koff: < 1e-07 s⁻¹
- kon: 1.04e+06 M⁻¹ s⁻¹
Substance: human IgG1 control (antibody)

— patent US20190315837A1
